Series [1] has as its target T1, hOGG1 K249Q (catalytically inactive) (Homo sapiens, UniProt O15527 1-345, K249Q). As to the kind of experiment: EMSA.
Series [2] addresses T1, hOGG1 K249Q (catalytically inactive). The series is described as follows: EMSA. This is another data set of the same source.

Like-named read-outs stand apart in the source and are kept apart here.

T1 sequence (O15527 whole entry K249Q): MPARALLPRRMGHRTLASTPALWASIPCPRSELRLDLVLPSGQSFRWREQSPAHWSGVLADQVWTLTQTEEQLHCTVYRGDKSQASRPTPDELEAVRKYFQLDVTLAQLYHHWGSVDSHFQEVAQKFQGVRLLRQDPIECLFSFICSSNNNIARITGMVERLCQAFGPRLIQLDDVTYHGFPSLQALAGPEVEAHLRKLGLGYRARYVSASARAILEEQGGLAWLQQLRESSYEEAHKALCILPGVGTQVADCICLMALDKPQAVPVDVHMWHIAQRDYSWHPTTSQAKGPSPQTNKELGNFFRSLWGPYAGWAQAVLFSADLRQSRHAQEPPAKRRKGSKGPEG

B1: dsDNA (145 bp 601, unmodified) (dsDNA)
DNA 1: ATCGATGTATATATCTGACACGTGCCTGGAGACTAGGGAGTAATCCCCTTGGCGGTTAAAACGCGGGGGACAGCGCGTACGTGCGTTTGAGCGGTGCTAGAGCTGTCTACGACCAATTGAGCGGCCTCGGCACCGGGATTCTGAT
DNA 2: ATCAGAATCCCGGTGCCGAGGCCGCTCAATTGGTCGTAGACAGCTCTAGCACCGCTCAAACGCACGTACGCGCTGTCCCCCGCGTTTTAACCGCCAAGGGGATTACTCCCTAGTCTCCAGGCACGTGTCAGATATATACATCGAT
One may read the Kd as the concentration at which binding is half-saturated. Higher therefore signals weaker binding. As for B1, the Kd in series [1] is 1310 ± 200 nM.

B2: dsDNA-8-oxodGuo-89 (dsDNA)
DNA 1: B1 DNA 1
DNA 2: B1 DNA 2
modifications: 8-oxodGuo at G89 of strand 1
For B2, in series [2], the Kd worked out at 300 ± 10 nM.

B3: dsDNA-8-oxodGuo-137 (dsDNA)
DNA 1: B1 DNA 1
DNA 2: B1 DNA 2
modifications: 8-oxodGuo at G137 of strand 1
In turn, B3 displayed a Kd in series [2] of 420 ± 20 nM.

B4: dsDNA-8-oxodGuo-73 (dsDNA)
DNA 1: B1 DNA 1
DNA 2: B1 DNA 2
modifications: 8-oxodGuo at G73 of strand 1
B4 showed a Kd in series [2] of 240 ± 10 nM.

(Values after publication PMC11526172.)
